Laboratory results published in the nanobody polyreactivity screen of Harvey et al. (2022).

assay: yeast display, Sf9 membrane polyspecificity reagent, FACS + sequencing; frameworks hold sequencing errors
Method in brief: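 Nanobodies from a synthetic yeast display library (Saccharomyces cerevisiae BJ5465), induced 36–48 hours with galactose, were stained 1 hour at 4 °C with 10% biotinylated, detergent-solubilized Sf9 membrane reagent, enriched on streptavidin microbeads, then FACS-sorted. Anti-HA (expression) and streptavidin (reagent binding) fluorescence set low and high (top ~1%) gates. Polyreactivity labels come from the gate of origin. Genes were colony-PCR amplified, MiSeq 2 × 250 sequenced and filtered by CDR length.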

| Sequence | polyreactivity (PSR sort gate) |
| --- | --- |
| QVQHVESGGGLVQAGGSLRLSCAASGRTFEVFAMGWYRQAPRKERELVATITYSGGITYYADSVKGRFTISRDKAKNTVYLQMNSLKPEDTAVYYPIGVGGDYDYCGQGTQVTVSS | low polyreactivity |
| QVQHVESGGGLVQAGGSLRLSCAASGRTFKYYAMGWYRQAPGKERELVAAISSRGGSTYYADSVKGRFTISRDNAKNTVYLQMNSLKPEDTAVYYCAKGTYLSTSTVANDYWGQGTQVTVSS | high polyreactivity |
| QVQHVESGGGLVQAGGSLRLSCAASGRTFQLYDMGWYRQPHGKDRELVAGITITGGSTYYADSVKGRFTISRDIAKNTVYIQMISLKPEDTAVYYCAARKARPPFPHPFDYYWGQGTQVTVSS | low polyreactivity |
| QVQHVESGGGLVQAGGSLRLSCAASGRTFSRYAMGWYRQAPGKERELVAAISSRGGSTYYADSVKGRFTISRDYAKNTVYLQMNSLKPEDTAVYYCNADSKVDQYGYDYWGQGTQVTVSS | high polyreactivity |
| QVQHVESGGGLVQAGGSLRLSCAASGRTFWTNALGWYRQAPGKEREFVGAISWRGASTFYADSVKGRFTISRDHAKNTVYLQMTSLKPEDTAVYDCAAQSRTRSFYGKFDSWGQGTQVTVSS | low polyreactivity |
| QVQHVESGGGLVQAGGSLRLSCAASGRTFYRYAMGWSRQAPGKERELVASINRGGSTNYADSVKGRFTISRDNAKNTVYLQMNSLKPEDTAVYYCNADGYQAASRVYRRPKRYYSWGQGTQVTVSS | low polyreactivity |
| QVQHVESGGGLVQAGGSLRLSCAASGRTSKKYVMGWYRQAPGKERELVATLNWSGGSTYYADSVKGRFTISRDNAKNTVYLQMNSLKPEDTAVYYCAARSEFYWGWEYITYDYWGQGTQVTVSS | low polyreactivity |
| QVQHVESGGGLVQAGGSLRLSCAASGRTSNIYAMGWYRQAPGKERELVAAIRTGGSTNYADSVKGRFTISRDNAKNTVYLQMNSLKPEDTAVYYCAATSRRSRPAEEYWGQGTQVTVSS | high polyreactivity |
| QVQHVESGGGLVQAGGSLRLSCAASGRTSYGNTMGWYRQAPGKERELVATISGGGSTNYADSVKGRFTISRDNAKNTVYLQMNSLKPDDTAVYYCAARRYPFPGYRYYYWGQGTQVTVSS | high polyreactivity |
| QVQHVESGGGLVQAGGSLRLSCAASGRTYRYNAMGWYRQAPGKETELVAAITGGGSTNYADSVKGRFTISRDNAKYTVYLQMNSLKPEDTAVYYCATGGFKYWWLYPYDYWGQGTQVTVSS | low polyreactivity |
| QVQHVESGGGLVQAGGSLRLSCAASGSIFRRYTMGWYRQAPGKERELVAAISRVGNTNYADSVKGRFTISRDNAKNTVYLQMNSLKPEDTAVYYCAARAIGYRYTPGLNYWGQGTQVTVSS | high polyreactivity |
| QVQHVESGGGLVQAGGSLRLSCAASGSIFVFYAMGWYRQAHGKEREFVASITSSGGSTYYADSVKGRFTISRDNAKNTVYLQMNSLKPEDTAVYYCAARKYRNPYYYRYYYWGQGTQVTVSS | high polyreactivity |
| QVQHVESGGGLVQAGGSLRLSCAASGSIIRGNCMGWYRQAPGKERELVAAISRSGGRTYYADSVKGRFTFSRDNAKNTVYLQMNSLKPEDTAVYYFAKDRSGSYYNFPEYDYWGQGTQVTVSS | high polyreactivity |
| QVQHVESGGGLVQAGGSLRLSCAASGSNVVSNAMGWYRHATGKEREFVATISSGGGTTYADSVKGRFTISRDNAKITVYLQMNSLKAEDTAVYYCAAGHFVGREWVKFDYWGQGTQVTVSS | low polyreactivity |
| QVQHVESGGGLVQAGGSLRLSCAASGSTFLVYAMGWYRQAPGKERELVAAISGAGSTTYADSVKGRFTISRDNAKNTVYLQMNSMKPEDTAVSYCNARTVAIWSERYYWGQGTQVTVSS | low polyreactivity |
| QVQHVESGGGLVQAGGSLRLSCAASGSTFPGYAMGWYRQAPGKERELVAAISKRGGSTRYADSVKGRFTISRDNAINTVYLQMNSLKPEDTAVYYCAASYSYSGSGGGYWGQGTQVTVSS | high polyreactivity |
